Entries after “also recorded” stand apart in the source; their conditions may differ.
Biological target: [2,3-3H]-L-proline-labeled procollagen substrate

B1: chicken prolyl 3-hydroxylase 1 (chicken P3H1) (protein)
chain: AGPPGPLGPPEHSEPPLPAEPPDALFAAGAEAYARGDWPAVVLQMERALRARAAIRARSVRCRLRCANATAVVPTDGLEPTLHDLLFFRGLLRRAACLRGCGPTQPSRYRLGEELEREFRKRSPYNYLQVAYFKINKVAKAVAAAHTFFVANPEHVEMKQNLEYYQMMAGVRESDFADLEARPHMTEFRLGVRFYSEEQPAAAVLHLEKALQEYFVADTECRALCEGPYDYEGYNYLEYNADLFQAMTDHYMQVLSCKQGCVTELASQPGREKPLEDFLPSHFNYLQFAYYNNGNYEKAIECAKTYLLFFPNDEVMNQNLAYYTAVLGEDLARPIEPRKEIQAYRQRSLMEKELLFFSYDVFGIPFVDPDTWTPEEVIPKRLREKQKVERETAARISEEIGNLMKEIETLVEEKAKESAEMSKFIREGGPLVYEGASVTMNSKSLNGSQRVVVDGVLSAEECRELQRLTNAAASAGDGYRGKTSPHTPSETFYGVTVLKALKLGQEGKVPLQSAHLYYNVTEKVRHMMESYFRLEVPLHFSYSHLVCRTAIDEKQEGRSDNSHEVHVDNCILNAEALVCVKEPPAYTFRDYSAILYLNGDFEGGAFYFTELDAKTQTAEVQPQCGRAVGFSSGSENPHGVKAVTKGQRCAIALWFTLDPRHSERERVQADDLVKMLFRTEEVDLLQETSAEQEPTAATSTAGLHAAGKDEL
Km; prolyl 3-hydroxylase activity as release of tritiated water (THO), double reciprocal plot: a Km of 179 µl of substrate per 2 mls reaction volume; also recorded: or 89.5 µl of substrate per ml

From US20050277167
